Assay results: US20230055711A1 (BIOSION, published 2023)
Substitutions are numbered along the chain they refer to.

T1: human BCMA on U266 cells (human, UniProt Q02223 1-184)
T1 sequence (looked up): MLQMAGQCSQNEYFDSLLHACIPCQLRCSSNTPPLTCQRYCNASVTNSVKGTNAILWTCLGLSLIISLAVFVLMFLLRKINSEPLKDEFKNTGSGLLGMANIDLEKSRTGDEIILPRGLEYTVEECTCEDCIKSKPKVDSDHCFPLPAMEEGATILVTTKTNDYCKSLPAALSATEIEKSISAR

T2: human BCMA on 293F-BCMA cells (human, UniProt Q02223 1-184)
T2 construct: Stably expressed on 293F cells prepared in house; also called 293F cells expressing human BCMA; Full length human BCMA
T2 sequence: T1 sequence (looked up)

B1: huB1H2-V10 (antibody, human IgG1, kappa, V domains shown)
VH: QVQLVQSGAEVKKPGASVKVSCKASGYTLTNYVMHWVRQAPGQGLEWIGFIIPFNDGTKYNEHFKGRVTITSDTSISTAYMQLSSLRSEDTAVYYCARYDFEGYFDVWGQGTLVTVSS
VL: DIQMTQSPSSLSASVGDRVTITCSASQDITNFLNWYQQKPGKAPKLLIYSTSRLHSGVPSRFSGSGSGTDFTLTISSLQPEDIATYYCQQYSNLPWTFGQGTKVEIKR
notes: Humanized IgG1/kappa; cell supernatant in the Octet assay, purified antibody in Biacore, ELISA and FACS
B2: BCMA BM1, full-length antibody containing the BCMA-binding portion of GSK2857916 (antibody, human IgG1, kappa, V domains shown)
VH: QVQLVQSGAEVKKPGSSVKVSCKASGGTFSNYWMHWVRQAPGQGLEWMGATYRGHSDTYYNQKFKGRVTITADKSTSTAYMELSSLRSEDTAVYYCARGAIYDGYDVLDNWGQGTLVTVSS
VL: B1 VL with T30S, F32Y, S50Y, R53N, I83F, S92R, N93K, V104L
notes: Prepared in house from the full heavy and light chains; also called benchmark; positive control
B3: huB1H2-V33 (antibody, human IgG1, kappa, V domains shown)
VH: B1 VH
VL: B1 VL with L73F
notes: as for B1
B4: chimeric B1H2 antibody (antibody, human IgG1, kappa, V domains shown)
VH: EVQLQQSGPELVKPGASVKMSCKASGYTLTNYVMHWMKQKPGQGLEWIGFIIPFNDGTKYNEHFKGKATLTSDKSSNTAYMVLSSLTSEDSAVYYCARYDFEGYFDVWGAGTTVTVSS
VL: DIQMTQTTSSLSASLGDRVTISCSASQDITNFLNWYQQKPDGTVKLLIYSTSRLHSGVPSRFSGSGSGTDYSLTISNLEPEDIATYYCQQYSNLPWTFGGGTNLEIKR
notes: Mouse variable domains fused to human IgG1 / kappa constant regions, made in 293F cells
B5: huB1H2-V21 (antibody, human IgG1, kappa, V domains shown)
VH: B1 VH with V37M, S72R
VL: B1 VL with F71Y
B6: huB1H2-V19 (antibody, human IgG1, kappa, V domains shown)
VH: B1 VH with Q1E, A16S, V37M, V68A, I70L, T74K, I76T, S77N, Q82E, Q110A
VL: B1 VL with F71Y
B7: huB1H2-V15 (antibody, human IgG1, kappa, V domains shown)
VH: B1 VH with V37M, S72R
VL: B1 VL with P44V
B8: huB1H2-V3 (antibody, human IgG1, kappa, V domains shown)
VH: B1 VH with V37M, S72R
VL: B1 VL with A43T, P44V, F71Y, L73F
B9: huB1H2-V5 (antibody, human IgG1, kappa, V domains shown)
VH: B1 VH with S72R, T74K
VL: B1 VL with A43T, P44V, F71Y, L73F
B10: huB1H2-V24 (antibody, human IgG1, kappa, V domains shown)
VH: B1 VH with T74K
VL: B1 VL with F71Y
B11: huB1H2-V22 (antibody, human IgG1, kappa, V domains shown)
VH: B1 VH
VL: B1 VL with F71Y
B12: huB1H2-V17 (antibody, human IgG1, kappa, V domains shown)
VH: B1 VH with S72R, T74K
VL: B1 VL with P44V
B13: huB1H2-V16 (antibody, human IgG1, kappa, V domains shown)
VH: B1 VH
VL: B1 VL with P44V
B14: huB1H2-V18 (antibody, human IgG1, kappa, V domains shown)
VH: B1 VH with T74K
VL: B1 VL with P44V
B15: huB1H2-V14 (antibody, human IgG1, kappa, V domains shown)
VH: B1 VH with S72R
VL: B1 VL with P44V
B16: huB1H2-V2 (antibody, human IgG1, kappa, V domains shown)
VH: B1 VH with S72R
VL: B1 VL with A43T, P44V, F71Y, L73F
B17: huB1H2-V6 (antibody, human IgG1, kappa, V domains shown)
VH: B1 VH with T74K
VL: B1 VL with A43T, P44V, F71Y, L73F
B18: huB1H2-V1 (antibody, human IgG1, kappa, V domains shown)
VH: B1 VH with Q1E, A16S, V37M, V68A, I70L, T74K, I76T, S77N, Q82E, Q110A
VL: B1 VL with A43T, P44V, F71Y, L73F
B19: huB1H2-V23 (antibody, human IgG1, kappa, V domains shown)
VH: B1 VH with S72R, T74K
VL: B1 VL with F71Y
B20: huB1H2-V13 (antibody, human IgG1, kappa, V domains shown)
VH: B1 VH with Q1E, A16S, V37M, V68A, I70L, T74K, I76T, S77N, Q82E, Q110A
VL: B1 VL with P44V
B21: huB1H2-V4 (antibody, human IgG1, kappa, V domains shown)
VH: B1 VH
VL: B1 VL with A43T, P44V, F71Y, L73F
B22: huB1H2-V20 (antibody, human IgG1, kappa, V domains shown)
VH: B1 VH with S72R
VL: B1 VL with F71Y

Molecular target: human BCMA on U266 cells (human) (UniProt Q02223)
Test: cell-based or functional assay

| Molecule | Max inhibition on cell viability (%), antibody-DT3C conjugate on U266 cells |
| --- | --- |
| isotype control antibody (as isotype control-DT3C conjugate) | 17.8% |

Molecular target: T1, human BCMA on U266 cells
Test: cell-based or functional assay

| Molecule | IC50 (nM), cell killing activity of antibody-DT3C conjugate on U266 cells (internalization assay) | Max inhibition on cell viability (%), antibody-DT3C conjugate on U266 cells |
| --- | --- | --- |
| B1 | 0.19 nM | 99.7% |
| B2 | 1.55 nM | 97% |
| B3 | 0.14 nM | 99.9% |

Molecular target: T1, human BCMA on U266 cells
Test: cell based binding FACS on U266 cells, MFI

| Molecule | EC50 |
| --- | --- |
| B2 | 17.7 nM |

Molecular target: recombinant human BCMA-his protein (Acro biosystems, Cat #BCA-H522Y) (human) (UniProt Q02223)
Test: BLI Octet RED96, antibody on AHC sensor, BCMA-his in solution

| Molecule | Kd | koff | kon |
| --- | --- | --- | --- |
| B4 | 0.673 nM | – | – |
| B1 | 2.02 nM | 0.000733 s⁻¹ | 363000 M⁻¹ s⁻¹ |
| B5 | 7.12 nM | 0.00142 s⁻¹ | 199000 M⁻¹ s⁻¹ |
| B6 | 2.65 nM | 0.000647 s⁻¹ | 244000 M⁻¹ s⁻¹ |
| B7 | 6.06 nM | 0.00137 s⁻¹ | 226000 M⁻¹ s⁻¹ |
| B8 | 0.731 nM | 0.000402 s⁻¹ | 550000 M⁻¹ s⁻¹ |
| B9 | 0.915 nM | 0.000372 s⁻¹ | 407000 M⁻¹ s⁻¹ |
| B10 | 6.1 nM | 0.001 s⁻¹ | 164000 M⁻¹ s⁻¹ |
| B11 | 3.77 nM | 0.000862 s⁻¹ | 229000 M⁻¹ s⁻¹ |
| B12 | 9.16 nM | 0.00238 s⁻¹ | 260000 M⁻¹ s⁻¹ |
| B13 | 3.5 nM | 0.000887 s⁻¹ | 254000 M⁻¹ s⁻¹ |
| B14 | 2.22 nM | 0.000921 s⁻¹ | 415000 M⁻¹ s⁻¹ |
| B15 | 5.14 nM | 0.00137 s⁻¹ | 266000 M⁻¹ s⁻¹ |
| B16 | 1.29 nM | 0.000742 s⁻¹ | 573000 M⁻¹ s⁻¹ |
| B17 | 1.12 nM | 0.00044 s⁻¹ | 392000 M⁻¹ s⁻¹ |
| B18 | 1.22 nM | 0.000498 s⁻¹ | 407000 M⁻¹ s⁻¹ |
| B19 | 20.4 nM | 0.00214 s⁻¹ | 105000 M⁻¹ s⁻¹ |
| B20 | 2.21 nM | 0.000688 s⁻¹ | 312000 M⁻¹ s⁻¹ |
| B21 | 0.269 nM | 0.00029 s⁻¹ | 1.08e+06 M⁻¹ s⁻¹ |
| B22 | 6 nM | 0.00141 s⁻¹ | 234000 M⁻¹ s⁻¹ |
| B3 | 0.349 nM | 0.00341 s⁻¹ | 9.76e+06 M⁻¹ s⁻¹ |

Molecular target: T3, cynomolgus BCMA-his protein (Acro biosystems, Cat #BCA-052H7) (cynomolgus monkey, UniProt A0A2K5UD97 1-53)
T3 construct: Bought; also called cynomolgus monkey BCMA protein; not shown: his tag
T3 sequence (A0A2K5UD97 entry or part of it): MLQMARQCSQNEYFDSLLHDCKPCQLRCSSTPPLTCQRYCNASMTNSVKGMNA
Test: indirect ELISA on coated cynomolgus BCMA-his

| Molecule | EC50 |
| --- | --- |
| B4 | 190 nM |
| B1 | ~25400 nM |
| B2 | 0.186 nM |
| B3 | ~176 nM |

Molecular target: recombinant human BCMA-his protein (Acro biosystems, Cat #BCA-H522Y) (human) (UniProt Q02223)
Test: SPR Biacore, antibody captured by anti-human IgG on CM5, BCMA-his flowed

| Molecule | Kd | koff | kon |
| --- | --- | --- | --- |
| B4 | 0.0839 nM | – | – |
| B1 | 0.289 nM | 0.00788 s⁻¹ | 2.73e+07 M⁻¹ s⁻¹ |
| B3 | 0.349 nM | 0.00341 s⁻¹ | 9.76e+06 M⁻¹ s⁻¹ |

Molecular target: T2, human BCMA on 293F-BCMA cells
Test: cell based binding FACS on 293F cells expressing human BCMA, MFI

| Molecule | EC50 |
| --- | --- |
| B4 | 0.953 nM |
| B1 | 1.2 nM |
| B2 | 8.86 nM |
| B3 | 0.865 nM |

Molecular target: recombinant human BCMA-his protein (Acro biosystems, Cat #BCA-H522Y) (human) (UniProt Q02223)
Test: competitive ELISA: coated human BCMA-his, blocked ligand biotin-labeled BAFF-Fc

| Molecule | IC50 |
| --- | --- |
| B1 | 10.2 nM |
| B3 | 7.05 nM |

Molecular target: recombinant human BCMA-his protein (Acro biosystems, Cat #BCA-H522Y) (human) (UniProt Q02223)
Test: competitive ELISA: antibody pre-mixed with biotin-labeled human BCMA-his, competitor coated BCMA BM1

| Molecule | IC50 |
| --- | --- |
| B1 | 1.51 nM |
| B3 | 1.45 nM |

Molecular target: recombinant human BCMA-his protein (Acro biosystems, Cat #BCA-H522Y) (human) (UniProt Q02223)
Test: capture ELISA: antibody captured on the plate, biotin-labeled human BCMA-his detected with streptavidin-HRP

| Molecule | EC50 |
| --- | --- |
| B4 | 0.226 nM |
| B1 | 0.47 nM |
| B3 | 0.439 nM |
